Laboratory results as given in patent publication US20040203002.
Like-named read-outs stand apart in the source and are kept apart here.

Experiments:
[1] = target: Zif268 finger 2 variant KASN finger 2 alpha-helix variant KASN (full helix only in FIG. 1D) (Mus musculus) (UniProt P08046); details: [none]
[2] = target: Zif268 finger 2 variant REDV finger 2 alpha-helix variant REDV (full helix only in FIG. 1D) (Mus musculus) (UniProt P08046); details: [none]
[3] = target: Zif268 finger 2 variant RGPD finger 2 alpha-helix variant RGPD (full helix only in FIG. 1D) (Mus musculus) (UniProt P08046); details: [none]
[4] = target: Zif268 finger 2 variant KASN finger 2 alpha-helix variant KASN (full helix only in FIG. 1D) (Mus musculus) (UniProt P08046); assay: ELONA; details: [none]; apparent Kd, phage ELISA, PBS/Zn, RT
[5] = target: Zif268 finger 2 variant LRHN finger 2 alpha-helix variant LRHN (full helix only in FIG. 1D) (Mus musculus) (UniProt P08046); assay: ELONA; details: [none]; apparent Kd, phage ELISA, PBS/Zn, RT
[6] = target: Zif268 finger 2 variant RGPD finger 2 alpha-helix variant RGPD (full helix only in FIG. 1D) (Mus musculus) (UniProt P08046); assay: ELONA; details: [none]; apparent Kd, phage ELISA, PBS/Zn, RT
[7] = target: Zif268 finger 2 variant LRHN finger 2 alpha-helix variant LRHN (full helix only in FIG. 1D) (Mus musculus) (UniProt P08046); details: [none]
[8] = target: Zif268 finger 2 variant REDV finger 2 alpha-helix variant REDV (full helix only in FIG. 1D) (Mus musculus) (UniProt P08046); assay: ELONA; details: [none]; apparent Kd, phage ELISA, PBS/Zn, RT
[9] = target: Zif268 wildtype (three zinc fingers, phage displayed) (Mus musculus) (UniProt P08046); assay: ELONA; details: apparent non-equilibrium Kd, phage ELISA, all values scaled to this one (3.0 nM); PBS/Zn, milk, Tween 20, salmon testes DNA, RT
[10] = apparent Kd interpolated from microarray signal 0.122
[11] = apparent Kd interpolated from microarray signal 0.063

“TATATAGCGCGCGCGTATATATCAAGTCAATCGGTCC (double strand) [Zif268 site CGC]” was tested, and the Kd ([1]; apparent Kd interpolated from microarray signal 0.774) was 390 nM.

Sequence “TATATAGCGGAGGCGTATATATCAAGTCAATCGGTCC (double strand) [Zif268 site GAG]” has a Kd ([2]; apparent Kd interpolated from microarray signal 0.120) of 690 nM and a Kd ([3]; apparent Kd interpolated from microarray signal 0.151) of 670 nM.

For “TATATAGCGATGGCGTATATATCAAGTCAATCGGTCC (double strand) [Zif268 site ATG]”, the Kd ([2]; apparent Kd interpolated from microarray signal 0.069) was 1600 nM and the Kd ([3]; apparent Kd interpolated from microarray signal 0.136) was 720 nM.

Sequence “TATATAGCGCGGGCGTATATATCAAGTCAATCGGTCC (double strand) [Zif268 site CGG]” has a Kd [4] of 1460 nM.

Work on “TATATAGCGTATGCGTATATATCAAGTCAATCGGTCC (double strand) [Zif268 site TAT]” yielded a Kd [4] of 270 nM and a Kd [5] of 6.3 nM.

Work on “TATATAGCGGCCGCGTATATATCAAGTCAATCGGTCC (double strand) [Zif268 site GCC]” yielded a Kd [6] of 600 nM and a Kd ([2]; apparent Kd interpolated from microarray signal 0.084) of 1500 nM.

Work on “TATATAGCGGGGGCGTATATATCAAGTCAATCGGTCC (double strand) [Zif268 site GGG]” yielded a Kd [2, 10] of 1100 nM, a Kd ([3]; apparent Kd interpolated from microarray signal 0.118) of 770 nM and a Kd ([1]; apparent Kd interpolated from microarray signal 0.612) of 1700 nM.

“TATATAGCGACTGCGTATATATCAAGTCAATCGGTCC (double strand) [Zif268 site ACT]” gave a Kd ([7]; apparent Kd interpolated from microarray signal 0.342) of 160 nM and a Kd ([1]; apparent Kd interpolated from microarray signal 0.949) of 260 nM.

With “TATATAGCGTACGCGTATATATCAAGTCAATCGGTCC (double strand) [Zif268 site TAC]” the Kd ([7]; apparent Kd interpolated from microarray signal 0.329) was 170 nM.

“TATATAGCGCATGCGTATATATCAAGTCAATCGGTCC (double strand) [Zif268 site CAT]” showed a Kd [5] of 120 nM.

For “TATATAGCGGCAGCGTATATATCAAGTCAATCGGTCC (double strand) [Zif268 site GCA]”, the Kd ([2]; apparent Kd interpolated from microarray signal 0.108) was 1300 nM and the Kd ([3]; apparent Kd interpolated from microarray signal 0.216) was 510 nM.

“TATATAGCGATTGCGTATATATCAAGTCAATCGGTCC (double strand) [Zif268 site ATT]” showed a Kd [5] of 240 nM and a Kd ([1]; apparent Kd interpolated from microarray signal 0.942) of 270 nM.

For “TATATAGCGTGTGCGTATATATCAAGTCAATCGGTCC (double strand) [Zif268 site TGT]”, the Kd ([7]; apparent Kd interpolated from microarray signal 0.384) was 130 nM and the Kd ([1]; apparent Kd interpolated from microarray signal 0.856) was 320 nM.

“TATATAGCGGGTGCGTATATATCAAGTCAATCGGTCC (double strand) [Zif268 site GGT]” was tested, and the Kd ([7]; apparent Kd interpolated from microarray signal 0.238) was 260 nM and the Kd ([1]; apparent Kd interpolated from microarray signal 0.616) was 1600 nM.

For “TATATAGCGAATGCGTATATATCAAGTCAATCGGTCC (double strand) [Zif268 site AAT]”, the Kd [4] was 250 nM and the Kd [5] was 110 nM.

“TATATAGCGGTGGCGTATATATCAAGTCAATCGGTCC (double strand) [Zif268 site GTG]” showed a Kd [8] of 11 nM and a Kd ([3]; apparent Kd interpolated from microarray signal 0.175) of 610 nM.

With “TATATAGCGTCTGCGTATATATCAAGTCAATCGGTCC (double strand) [Zif268 site TCT]” the Kd ([2]; apparent Kd interpolated from microarray signal 0.083) was 1500 nM and the Kd ([3]; apparent Kd interpolated from microarray signal 0.146) was 690 nM.

“TATATAGCGCCTGCGTATATATCAAGTCAATCGGTCC (double strand) [Zif268 site CCT]” was tested, and the Kd ([7]; apparent Kd interpolated from microarray signal 0.298) was 200 nM and the Kd ([1]; apparent Kd interpolated from microarray signal 0.974) was 250 nM.

For “TATATAGCGTGGGCGTATATATCAAGTCAATCGGTCC (double strand) [Zif268 site TGG]”, the Kd [9] was 3 nM.

“TATATAGCGAGTGCGTATATATCAAGTCAATCGGTCC (double strand) [Zif268 site AGT]” showed a Kd ([7]; apparent Kd interpolated from microarray signal 0.449) of 93 nM and a Kd ([1]; apparent Kd interpolated from microarray signal 0.862) of 320 nM.

“TATATAGCGACGGCGTATATATCAAGTCAATCGGTCC (double strand) [Zif268 site ACG]” showed a Kd [2, 11] of 1700 nM and a Kd ([3]; apparent Kd interpolated from microarray signal 0.143) of 690 nM.

For “TATATAGCGCCCGCGTATATATCAAGTCAATCGGTCC (double strand) [Zif268 site CCC]”, the Kd [2, 11] was 1700 nM and the Kd ([3]; apparent Kd interpolated from microarray signal 0.119) was 770 nM.

For “TATATAGCGGACGCGTATATATCAAGTCAATCGGTCC (double strand) [Zif268 site GAC]”, the Kd ([1]; apparent Kd interpolated from microarray signal 0.652) was 1300 nM.

Work on “TATATAGCGCTCGCGTATATATCAAGTCAATCGGTCC (double strand) [Zif268 site CTC]” yielded a Kd ([2]; apparent Kd interpolated from microarray signal 0.058) of 1800 nM and a Kd [3, 10] of 760 nM.

Work on “TATATAGCGGCTGCGTATATATCAAGTCAATCGGTCC (double strand) [Zif268 site GCT]” yielded a Kd ([2]; apparent Kd interpolated from microarray signal 0.077) of 1600 nM and a Kd ([3]; apparent Kd interpolated from microarray signal 0.406) of 220 nM.

Sequence “TATATAGCGTAGGCGTATATATCAAGTCAATCGGTCC (double strand) [Zif268 site TAG]” has a Kd [4] of 390 nM and a Kd [5] of 110 nM.

Work on “TATATAGCGGGCGCGTATATATCAAGTCAATCGGTCC (double strand) [Zif268 site GGC]” yielded a Kd ([1]; apparent Kd interpolated from microarray signal 0.636) of 1400 nM.

In the case of “TATATAGCGGAAGCGTATATATCAAGTCAATCGGTCC (double strand) [Zif268 site GAA]”, the Kd ([1]; apparent Kd interpolated from microarray signal 0.697) is reported as 1000 nM.

For “TATATAGCGCCGGCGTATATATCAAGTCAATCGGTCC (double strand) [Zif268 site CCG]”, the Kd [8] was 880 nM and the Kd [6] was 250 nM.

“TATATAGCGCGTGCGTATATATCAAGTCAATCGGTCC (double strand) [Zif268 site CGT]” showed a Kd ([7]; apparent Kd interpolated from microarray signal 0.330) of 170 nM and a Kd ([1]; apparent Kd interpolated from microarray signal 0.848) of 330 nM.

“TATATAGCGGATGCGTATATATCAAGTCAATCGGTCC (double strand) [Zif268 site GAT]” gave a Kd ([7]; apparent Kd interpolated from microarray signal 0.500) of 72 nM.

“TATATAGCGCAGGCGTATATATCAAGTCAATCGGTCC (double strand) [Zif268 site CAG]” showed a Kd ([2]; apparent Kd interpolated from microarray signal 0.056) of 1800 nM and a Kd ([3]; apparent Kd interpolated from microarray signal 0.105) of 820 nM.

“TATATAGCGGCGGCGTATATATCAAGTCAATCGGTCC (double strand) [Zif268 site GCG]” gave a Kd [8] of 11 nM and a Kd [6] of 17 nM.
